Results on three molecules are retold here after patent publication US20070148185A1.

For experiment [1], the target named is heparan sulfate proteoglycans (HSPG) expressed on the surface of HepG2 human liver cells (human). Briefly: 100 nM protein on HepG2 cells pretreated with Heparinase I 1.25 U/ml, against non-treated cells.
Experiment [2] has the same target. The experiment in a line: 100 nM protein on HepG2 cells pretreated with Heparinase I 2.50 U/ml, against non-treated cells.
Experiment [3] shares this target. Briefly: 100 nM protein on HepG2 cells pretreated with Heparinase I 5.00 U/ml, against non-treated cells.
Experiment [4] shares this target. Briefly: cell-based or functional assay.
Experiment [5] shares this target. Briefly: HepG2 cell binding assay with soluble heparin as competitive inhibitor.
The target is the same in experiment [6]. Briefly: binding of His-tagged protein to fixed HepG2 cells, anti-polyhistidine detection.

Regarding “recombinant Circumsporozoite (CS) protein with a polyhistidine tag at the carboxyl terminus”, the figures for the Inhibition of Binding (%) in experiment [1], in experiment [2] and in experiment [3] were 48.1%, 57.7% and 59.1%, respectively.

B1: Plasmodium falciparum Fasciclin Related Adhesive Protein (FRAP), recombinant full length protein (amino acids 1-205) with C-terminal polyhistidine tag (protein)
chain: MKNRFYYNLIIKRLYTRSGGLRKPQKVTNDPESINRKVYWCFEHKPVKRTIINLIYSHNELKIFSNLLNHPTVGSSLIHELSLDGPYTAFFPSNEAMQLINIESFNKLYNDENKLSEFVLNHVTKEYWLYRDLYGSSYQPWLMYNEKREAPEKLRNLLNNDLIVKIEGEFKHCNHSIYLNGSKIIRPNMKCHNGVVHIVDKPIIF
In experiment [4], B1 came in with a % Inhibition of invasion of HepG2 cells by P. falciparum sporozoites, FRAP at 10 µg/ml of 80.9%. In experiment [4], this molecule showed a % Inhibition of invasion of HepG2 cells by P. falciparum sporozoites, FRAP at 20 µg/ml of 89.5%. Besides, the reduction of binding activity in the presence of free heparin in experiment [5] is 55%. In addition, the Inhibition of Binding (%) in experiment [1] was determined as 39.4%; in experiment [2] it was 42.1%; in experiment [3], 47.8%.

B2: FRAP2, truncated P. falciparum FRAP containing amino acids 1-87, with C-terminal polyhistidine tag (protein)
chain: MKNRFYYNLIIKRLYTRSGGLRKPQKVTNDPESINRKVYWCFEHKPVKRTIINLIYSHNELKIFSNLLNHPTVGSSLIHELSLDGPY
With B2, in experiment [4], the % Inhibition of invasion of HepG2 cells by P. falciparum sporozoites, FRAP2 at 10 µg/ml was determined as 88.1%. The same molecule came in with a % Inhibition of invasion of HepG2 cells by P. falciparum sporozoites, FRAP2 at 20 µg/ml in experiment [4] of 92.4%. For the same molecule, in experiment [5], the reduction of binding activity in the presence of free heparin came out at 60%. Besides, in experiment [6], the loss of binding activity in comparison to the full length protein is 50%. In addition, the results for the Inhibition of Binding (%) in experiment [1], in experiment [2] and in experiment [3] were 42.3%, 41.4% and 49.4%, respectively.
